This note sets out measurements from paper PMC8677033.

For this series, the target named is HIS-RBS1_1412 WT (UniProt Q8TEQ6 1297-1412). The series is described as follows: EMSA.
HIS-RBS1_1412 WT, sequence (Q8TEQ6 1297-1412): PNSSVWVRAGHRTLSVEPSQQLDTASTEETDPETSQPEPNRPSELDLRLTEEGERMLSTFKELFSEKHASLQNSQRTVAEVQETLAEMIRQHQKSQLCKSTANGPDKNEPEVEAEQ

Consider UUUUU (ssRNA) [U(5)], for which the binding result is “no binding”.
